From paper PMC10349818 come the findings set out here.

In assay [1] the target is NavAb N49K/L176G mutant (Arcobacter butzleri) (UniProt A8EVM5). The assay is described as follows: crystal structure; protein in DMPC:CHAPSO bicelles, sitting-drop vapour diffusion at 20 °C; cryoprotectant with 2.5 M sodium chloride, with or without 100 mM calcium nitrate; homotetramer around the four-fold axis.
The target of assay [2] is NavAb N49K/L176Q mutant (Arcobacter butzleri) (UniProt A8EVM5). The assay is described as above.

As for “NavAb N49K/L176G mutant (from UniProt A8EVM5 1-267) (natural protein)”, the stoichiometry N in assay [1] worked out at 4.
With “NavAb N49K/L176Q mutant (from UniProt A8EVM5 1-267) (natural protein)”, the stoichiometry N in assay [2] was 4.
